± gives the uncertainty stated by the source.
Experiment: protein stability index of a GFP-peptide fusion (yeast GPS) (PSI 1-4); higher = more stable; sorted into four equal gates, so the index is relative within each strain
Summary of the method: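 Tiled 17-residue yeast protein peptides were fused downstream of GFP in a plasmid that also expresses Cherry, and the pooled library was carried in yeast. Mid-log cultures in leucine-free medium were sorted into four equal gates by GFP/Cherry fluorescence ratio, and plasmids from each gate were PCR-amplified and Illumina-sequenced, with reads assigned to strains by barcodes. The protein stability index for each peptide was each gate's read frequency times its gate number, summed.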

GINSPLSSVALRSDFYI [YJL039C/NUP192]
protein stability index (doa10∆): 2.45 ± 0.15
protein stability index (pdr5∆): 2.78 ± 0.12
protein stability index (san1∆): 2.96 ± 0.14
protein stability index (ubr1∆): 3.07 ± 0.15

VHDIFSKIFNESFPDDI [CDC53]
protein stability index (doa10∆): 2.86 ± 0.069
protein stability index (pdr5∆): 2.91 ± 0.065
protein stability index (san1∆): 2.87 ± 0.059
protein stability index (ubr1∆): 2.82 ± 0.06

DVLKSQANTEPENITKR [MCD1]
protein stability index (doa10∆): 3.06 ± 0.1
protein stability index (pdr5∆): 3.02 ± 0.083
protein stability index (san1∆): 2.98 ± 0.057
protein stability index (ubr1∆): 3.09 ± 0.046

DQLDSEAASITRKSLNN [ECM29]
protein stability index (doa10∆): 2.89 ± 0.1
protein stability index (pdr5∆): 2.91 ± 0.1
protein stability index (san1∆): 3.04 ± 0.064
protein stability index (ubr1∆): 2.95 ± 0.049

KRKSAQEPELSLDQGDA [SMC4]
protein stability index (doa10∆): 3.23 ± 0.1
protein stability index (pdr5∆): 3.19 ± 0.1
protein stability index (san1∆): 3.09 ± 0.17
protein stability index (ubr1∆): 3.39 ± 0.099

ISVTRQVVLGGTSKYLI [SMC2]
protein stability index (doa10∆): 2.65 ± 0.074
protein stability index (pdr5∆): 2.96 ± 0.14
protein stability index (san1∆): 2.79 ± 0.068
protein stability index (ubr1∆): 2.73 ± 0.062

NDEGVWDLVDERTKQRT [PRP8]
protein stability index (doa10∆): 3.19 ± 0.12
protein stability index (pdr5∆): 3.37 ± 0.13
protein stability index (san1∆): 3.35 ± 0.13
protein stability index (ubr1∆): 3.26 ± 0.12

NNESNKNNNGDEKNKNN [MED2]
protein stability index (doa10∆): 3.21 ± 0.074
protein stability index (pdr5∆): 3.39 ± 0.066
protein stability index (san1∆): 3.33 ± 0.038
protein stability index (ubr1∆): 3.31 ± 0.051

PAQKDSSVVSEPKKPSF [YOR098C/NUP1]
protein stability index (doa10∆): 2.94 ± 0.061
protein stability index (pdr5∆): 2.71 ± 0.05
protein stability index (san1∆): 2.3 ± 0.076
protein stability index (ubr1∆): 2.89 ± 0.042

YGAYNTQIANAGASPMV [PRE4]
protein stability index (doa10∆): 2.16 ± 0.1
protein stability index (pdr5∆): 2.3 ± 0.096
protein stability index (san1∆): 1.92 ± 0.097
protein stability index (ubr1∆): 1.61 ± 0.063

TMGEETAKKDMSSTTPK [SNF12]
protein stability index (doa10∆): 2.58 ± 0.07
protein stability index (pdr5∆): 3.03 ± 0.076
protein stability index (san1∆): 3.31 ± 0.1
protein stability index (ubr1∆): 3.27 ± 0.079

NSGIIPGNRNADNVDKI [FAS2]
protein stability index (doa10∆): 2.52 ± 0.083
protein stability index (pdr5∆): 2.52 ± 0.1
protein stability index (san1∆): 3.03 ± 0.091
protein stability index (ubr1∆): 3.04 ± 0.05

KSDDDDHTVDEIDHVEY [SRB8]
protein stability index (doa10∆): 2.45 ± 0.069
protein stability index (pdr5∆): 2.46 ± 0.08
protein stability index (san1∆): 2.98 ± 0.1
protein stability index (ubr1∆): 2.91 ± 0.048

DDENEPKRKRRLPVSED [YOR098C/NUP1]
protein stability index (doa10∆): 3.34 ± 0.1
protein stability index (pdr5∆): 3.28 ± 0.14
protein stability index (san1∆): 3.09 ± 0.087
protein stability index (ubr1∆): 3.06 ± 0.072

QKMAKAKKQNRPLPQWI [RPL39]
protein stability index (doa10∆): 2.97 ± 0.13
protein stability index (pdr5∆): 3.07 ± 0.057
protein stability index (san1∆): 3 ± 0.081
protein stability index (ubr1∆): 3.14 ± 0.059

ITSLYALIRRDFTLIPR [CDC53]
protein stability index (doa10∆): 2.95 ± 0.08
protein stability index (pdr5∆): 1.28 ± 0.071
protein stability index (san1∆): 1.18 ± 0.15
protein stability index (ubr1∆): 1.41 ± 0.031

WTIPHKKWNDLKNKNFK [SIR2]
protein stability index (doa10∆): 3.22 ± 0.14
protein stability index (pdr5∆): 3.38 ± 0.13
protein stability index (san1∆): 3.29 ± 0.11
protein stability index (ubr1∆): 3.23 ± 0.073

SFKIFVDVLVISSHSHP [RRP42]
protein stability index (doa10∆): 1.21 ± 0.043
protein stability index (pdr5∆): 1.21 ± 0.047
protein stability index (san1∆): 1.19 ± 0.07
protein stability index (ubr1∆): 1.39 ± 0.032

TIPLGGSVHKLPYAIAG [PRE3]
protein stability index (doa10∆): 2.97 ± 0.066
protein stability index (pdr5∆): 2.91 ± 0.085
protein stability index (san1∆): 2.84 ± 0.089
protein stability index (ubr1∆): 3.08 ± 0.045

INDKRANLMLVMLRLLL [SRB4]
protein stability index (doa10∆): 1.6 ± 0.039
protein stability index (pdr5∆): 1.61 ± 0.047
protein stability index (san1∆): 1.97 ± 0.067
protein stability index (ubr1∆): 1.94 ± 0.04

DPPKGILLYGPPGTGKT [RPT1]
protein stability index (doa10∆): 2.94 ± 0.28
protein stability index (pdr5∆): 2.71 ± 0.28
protein stability index (ubr1∆): 3.23 ± 0.17

NLQVELLSEHDDHNGEV [YGL100W/SEH1]
protein stability index (doa10∆): 3.12 ± 0.088
protein stability index (pdr5∆): 3.2 ± 0.071
protein stability index (san1∆): 2.83 ± 0.06
protein stability index (ubr1∆): 3.37 ± 0.055

GEPEAGNKALEDEEEFS [RPC34]
protein stability index (doa10∆): 3.18 ± 0.13
protein stability index (pdr5∆): 3.26 ± 0.26

RKWMEEKADYERELISN [YIL149C/MLP2]
protein stability index (doa10∆): 3.23 ± 0.045
protein stability index (pdr5∆): 3.35 ± 0.086
protein stability index (san1∆): 3.11 ± 0.04
protein stability index (ubr1∆): 3.31 ± 0.063

VLVSMGSSNKAVVQTVK [YJL039C/NUP192]
protein stability index (doa10∆): 1.33 ± 0.26
protein stability index (pdr5∆): 1.5 ± 0.15
protein stability index (ubr1∆): 1.34 ± 0.19

EKKILNQFLKIKKKRKE [SMC1]
protein stability index (doa10∆): 2.98 ± 0.12
protein stability index (pdr5∆): 3.06 ± 0.12
protein stability index (san1∆): 2.89 ± 0.1
protein stability index (ubr1∆): 3.33 ± 0.15

DDSLNRLAQNDGLLKNV [RPS21A]
protein stability index (doa10∆): 2.77 ± 0.15
protein stability index (pdr5∆): 3.04 ± 0.12
protein stability index (san1∆): 3.16 ± 0.13
protein stability index (ubr1∆): 3.38 ± 0.18

EFVSYYYAHSIPSSKID [SNU114]
protein stability index (doa10∆): 2.01 ± 0.045
protein stability index (pdr5∆): 1.9 ± 0.052
protein stability index (san1∆): 2.07 ± 0.063
protein stability index (ubr1∆): 1.62 ± 0.039

IDHINEESWEKVVEFAI [SCL1]
protein stability index (doa10∆): 2.78 ± 0.07
protein stability index (pdr5∆): 3.08 ± 0.082
protein stability index (san1∆): 3.03 ± 0.068
protein stability index (ubr1∆): 2.91 ± 0.06

VDIKGEDLHEKNDSAEV [NUT1]
protein stability index (doa10∆): 3.54 ± 0.12
protein stability index (pdr5∆): 3.37 ± 0.2
protein stability index (san1∆): 2.93 ± 0.19
protein stability index (ubr1∆): 3.55 ± 0.12

DNDIMNLGSRTKNNTQA [SSN3]
protein stability index (doa10∆): 2.91 ± 0.038
protein stability index (pdr5∆): 2.92 ± 0.038
protein stability index (san1∆): 2.76 ± 0.028
protein stability index (ubr1∆): 2.977 ± 0.029

EATAASHERFFLSQGLH [CSN12]
protein stability index (doa10∆): 1.43 ± 0.16
protein stability index (pdr5∆): 1.28 ± 0.1
protein stability index (san1∆): 1.09 ± 0.24
protein stability index (ubr1∆): 1.35 ± 0.18

LDGKFSLFHTAVSVANG [RPN2]
protein stability index (doa10∆): 2.09 ± 0.056
protein stability index (pdr5∆): 2.03 ± 0.057
protein stability index (san1∆): 2.45 ± 0.077
protein stability index (ubr1∆): 2.37 ± 0.06

QLKDMQTIEMITQIVEK [SRB8]
protein stability index (doa10∆): 2.87 ± 0.069
protein stability index (pdr5∆): 3.19 ± 0.075
protein stability index (san1∆): 2.94 ± 0.059
protein stability index (ubr1∆): 2.85 ± 0.056

PLYVMDEIDAALDFRNV [SMC4]
protein stability index (doa10∆): 2.5 ± 0.059
protein stability index (pdr5∆): 2.33 ± 0.066
protein stability index (san1∆): 3.26 ± 0.051
protein stability index (ubr1∆): 2.51 ± 0.048

PIGRDGKLAKPRQLHNT [RPB2]
protein stability index (doa10∆): 2.89 ± 0.077
protein stability index (pdr5∆): 2.88 ± 0.068
protein stability index (san1∆): 2.67 ± 0.059
protein stability index (ubr1∆): 2.84 ± 0.081

LQDDEDHKFPIRENKVT [BRN1]
protein stability index (doa10∆): 2.7 ± 0.1
protein stability index (pdr5∆): 3.07 ± 0.083
protein stability index (san1∆): 2.75 ± 0.074
protein stability index (ubr1∆): 2.38 ± 0.095

VHGKAPMLMANNDVFTI [SSN3]
protein stability index (doa10∆): 2.79 ± 0.068
protein stability index (pdr5∆): 2.47 ± 0.07
protein stability index (san1∆): 2.48 ± 0.095
protein stability index (ubr1∆): 2.72 ± 0.074

EDLFDDYPSTSLDIRHD [NUT1]
protein stability index (doa10∆): 1.81 ± 0.081
protein stability index (pdr5∆): 2.9 ± 0.077
protein stability index (san1∆): 3.09 ± 0.058
protein stability index (ubr1∆): 2.05 ± 0.056

SLDMNSMNKELIAIVSK [NUT1]
protein stability index (doa10∆): 1.56 ± 0.19
protein stability index (pdr5∆): 1.44 ± 0.13
protein stability index (ubr1∆): 1.19 ± 0.088

IFKIVQSRLMSTSYHLN [MED6]
protein stability index (doa10∆): 2.25 ± 0.18
protein stability index (pdr5∆): 2.23 ± 0.13
protein stability index (san1∆): 1.31 ± 0.096
protein stability index (ubr1∆): 2.31 ± 0.094

FLKLYVLVKWTRTIKQN [RGR1]
protein stability index (doa10∆): 1.41 ± 0.11
protein stability index (pdr5∆): 1.85 ± 0.14
protein stability index (san1∆): 2.38 ± 0.17
protein stability index (ubr1∆): 1.15 ± 0.091

MWSVARAGQRGYHSRTS [RPL3]
protein stability index (doa10∆): 2.86 ± 0.11
protein stability index (pdr5∆): 3.14 ± 0.091
protein stability index (san1∆): 3.16 ± 0.069
protein stability index (ubr1∆): 3.11 ± 0.095

PKEVDGLEVGPVVQVGI [IRR1]
protein stability index (doa10∆): 3.38 ± 0.11
protein stability index (pdr5∆): 2.98 ± 0.088
protein stability index (san1∆): 3.37 ± 0.18
protein stability index (ubr1∆): 3.23 ± 0.08

GQLGEMAKCLDNPDQGI [YCS4]
protein stability index (doa10∆): 3.13 ± 0.14
protein stability index (pdr5∆): 3.49 ± 0.12
protein stability index (san1∆): 3.39 ± 0.065
protein stability index (ubr1∆): 3.29 ± 0.15

LPRELPKLLDALNKISK [SNU114]
protein stability index (doa10∆): 2.65 ± 0.072
protein stability index (pdr5∆): 2.74 ± 0.083
protein stability index (san1∆): 2.84 ± 0.077
protein stability index (ubr1∆): 2.88 ± 0.062

PLSRINENENFGYDIPL [YML103C/NUP188]
protein stability index (doa10∆): 3.02 ± 0.12
protein stability index (pdr5∆): 3.14 ± 0.095
protein stability index (san1∆): 3.15 ± 0.064
protein stability index (ubr1∆): 3.08 ± 0.077

IDEAHRIKNEQSALSQI [ISW2]
protein stability index (doa10∆): 2.6 ± 0.1
protein stability index (pdr5∆): 2.17 ± 0.091
protein stability index (san1∆): 1.67 ± 0.089
protein stability index (ubr1∆): 3 ± 0.069

ISSGLLYLQDSNDKFVH [SRB8]
protein stability index (doa10∆): 1.94 ± 0.087
protein stability index (pdr5∆): 1.48 ± 0.13
protein stability index (san1∆): 1.25 ± 0.15
protein stability index (ubr1∆): 1.14 ± 0.07

IDDNYIVVVIEIITSLS [SRB8]
protein stability index (doa10∆): 2.6 ± 0.11
protein stability index (pdr5∆): 2.87 ± 0.081
protein stability index (san1∆): 2.16 ± 0.082
protein stability index (ubr1∆): 2.22 ± 0.086

NEEAEARRLKNRAARDR [RPL19A]
protein stability index (doa10∆): 3.16 ± 0.13
protein stability index (pdr5∆): 3.32 ± 0.087
protein stability index (san1∆): 2.89 ± 0.19
protein stability index (ubr1∆): 3.33 ± 0.062

LGKCSRITDASLFQLSK [GRR1]
protein stability index (doa10∆): 3.04 ± 0.11
protein stability index (pdr5∆): 3.14 ± 0.11
protein stability index (san1∆): 3.14 ± 0.093
protein stability index (ubr1∆): 2.88 ± 0.063

MSAAPVQDKDTLSNAER [GAL11]
protein stability index (doa10∆): 3.6 ± 0.15
protein stability index (pdr5∆): 3.07 ± 0.16
protein stability index (san1∆): 3.34 ± 0.073
protein stability index (ubr1∆): 3.04 ± 0.079

ELAGGNASLTIEDEDEP [SMC1]
protein stability index (doa10∆): 3.03 ± 0.08
protein stability index (pdr5∆): 3.09 ± 0.14
protein stability index (san1∆): 3 ± 0.059
protein stability index (ubr1∆): 3.16 ± 0.074
